This experiment deals with monoclonal antibody depY (mouse). The experiment can be described thus: SPR. A general note: In SPR one partner is held on a chip, and binding of the other changes the refractive index at the surface.

No end group written: not given here. OP = not defined here

Usually Kd stands for the constant that tells how readily two partners part at equilibrium. Read a high Kd as a looser complex.

The molecule PPYRM-{OP} (reading uncertain; also: printed as PPYRM-OP) [PPYRM-OP] gave a Kd of 360 nM.

LYGLPR-{OP} (reading uncertain; also: printed as LYGLPR-OP) [LYGLPR-OP] came in with a Kd of 12 nM.
